A protein production outcome set (Wang et al. 2014)

Experiment: label from the status in PepcDB records

Row | Sequence | protein production
1 | MMMMRAFIAENVRGIYAFDEDGKLVGKRYFTDKPEKILDGLLKGELVKDLEEFLNELREKGYDEFIFEHPELSRKAKELGFNATTEFPNLAGERLRSNPEEFLGENWFDDYYNVGVALTRMRIQEQSGARDKMVIQAIEALDDVDKVINLLVSRLREWYSLHFPELDEILPRHPQYVAFVKAIGHRDNVDEEKLRELGLSDEKIKKIIEAKEKTMGAWMDETDIAIVQHFAEEIDRLYKLRKELEDYIDKAMDDVAPNLKALVGAKLGARLISLAGGLKELAMLPSSTIQVLGAEKALFRHLRTGAKPPKHGVIYQYPAINRSPWWQRGKIARALAGKLAIAARVDYFSGEYIAEELKKELEARIKEIKEKYPRPPKRRKEERKGRKPWKEKKKKKKKKKGGRRLEHHHHHH | failed
2 | MESLTLQPIELISGEVNLPGSKSVSNRALLLAALASGTTRLTNLLDSDDIRHMLNALTKLGVNYRLSADKTTCEVEGLGQAFHTTQPLELFLGNAGTAMRPLAAALCLGQGDYVLTGEPRMKERPIGHLVDALRQAGAQIEYLEQENFPPLRIQGTGLQAGTVTIDGSISSQFLTAFLMSAPLAQGKVTIKIVGELVSKPYIDITLHIMEQFGVQVINHDYQEFVIPAGQSYVSPGQFLVEGDASSASYFLAAAAIKGGEVKVTGIGKNSIQGDIQFADALEKMGAQIEWGDDYVIARRGELNAVDLDFNHIPDAAMTIATTALFAKGTTAIRNVYNWRVKETDRLAAMATELRKVGATVEEGEDFIVITPPTKLIHAAIDTYDDHRMAMCFSLVALSDTPVTINDPKCTSKTFPDYFDKFAQLSR | not failed
3 | MDLKEIVQAGAFDLHIHTTASDGEYSPTAIVKKAKEIGLRTIAITDHDTLDGIEEAVIAGKRHGINVIPAIELTTKYKGTNVDILGYNVKASEKLQAILVQLKKHREGRAMQIIEKFNDIGFTITLDEVKQFSEDGVIARPHIAKAIVKKGYVLDYQTVFDEYLADGKPCAIDKMILTPEEGIKLIHEAGGKAILAHPVYLEDTLVRELLALDFDGIEVWHRNHDETDQEKYKMLATEFALIKTGGSDFHTDEHSLGQFGWKADEE | failed
4 | QSLRSFQKQNEDNDKRQQILRSINVNVSSSEAETKYNELIKEAFLVNENGEKVEGDAFATDVVKAATEHQYPVFVANVDGQPKYIMALHGAGLWGPLWGYISVDSDKNTIYGADFSHQGETPGLGAEISKPVFSNEFKGKKIFMSGEFKSVAVVKPGKSVAGQDYVDGISGGTITSKGVDEMLFNSLSGYVKFLTSQN | not failed
5 | MSQPRNRWIVQLILALAVLAFVGVSVVPIIGALNDNTSPSNQNSASNQGDSLASNQQSKLADEVRGYELVLQREPENQTALKGLLQARLQLLALKQGNVQSVIEPLEKLAKLNPNQSEYGVLLAQAKQQIGDKEGAATAYRSILDTKPGDLKALQGMVVLLLDQQRPEAAVGLLQDTLTNAAQANTIQPGSVDVVAVQVLLGNVHAAQKRYPQAISAFDQAIQKDTKDFRPVLAKAMLLKQQGKATEAKPLFDSALALAPAQYKDEINKAATVSPAPAPPAPPAPTPESTPKQ | failed
6 | MTKTLRTPEHVYLCQRLRQARLDAGLTQADLAERLDKPQSFVAKVETRERRLDVIEFAKWMAACEGLDVVSEIVATIAEGRAQA | not failed
7 | MNSEWIWRLRARLGYGVARQLLGWPWLVKQPRAWQWMQGQFSRMANLGHRDAQAFYGHLLLFRGQGFGAREEGLRLLRLAASAGDGKSAYQLGVQALKGDSRQAPDALAASRHWALAAEAGHPLAARKLAELYRDGGPGLAPDSERAEHYAQRASALGLLEHHHHHH | failed
8 | MLSIKQLSYALAVSKTLHFRKAADLCHVRQSTLSTGVSELERQLGIKIFERDNKKVLVTPLGREVLDKASNIMLQLEDMAHLDHSCGEP | failed
9 | MKLIKVILSSISQVVLINNPYTGLFILIGLFAVNWKVGISAMIASVMTWILAPYMNYTKEEIESGLAGFNPVLTAIALTLFLDSNWSGILITFVATILTLPIGAAVREVLKPHKIAFLTSPYVIMTWITLLIPNQLKTLHTQIDIIPEHIEKVSLNNDHTRVHFFQSVLDGFGQIFLMPSIIGGLLILIGIFIGSKKAGIVSIIANIIGFLIIILLGGDYSSINEGIFGYNVVLSAIALGVTFETAIHSYLAMILGIVLTAFIHLGLSTLLAPLGLPTLTWPFIFATWIMLFAGIKNQSV | failed
10 | MHSDALSWGHGPRLFEVFLEPTCPFSVKAFFKLDDLLAQAGEDNVTVRIRLQSQPWHMFSGVIVRCILAAATLEGGKESAKAVMTAVASHREEFEFEHHAGGPNLDATPNDIIARIERYSGLALAEAFANPELEHAVKWHTKYARQNGIHVSPTFMINGLVQPGMSSGDPVSKWVSDIG | not failed
11 | MIKEQSFEWLLEGCHRIADVAVAYYPNYAYACSAVKALRRSIAEHACLLKDLTDQGYTARTAHLTPVQIGILLSYWGMPDHVKDMTVKNPYLLVSKKYAK | failed
12 | MKYPIVPLTKFGLFRAQTYAVLKRPYLVTALVSYFMVALLVIIYLNKAPSFTSDMEMVLPGTGSSNSVSLDNVGQVVSQTNTPFSGGGFNPRVNYKEMLSSRGVRARAAKKLHLSLEDLGEPRIKLTEQTSIISLEMSANGQELAQAKTLALYESLQDELNNLRADEVLRRDQSIEQVLDRYRERMNITRNAIVDFQQRSIVVSTDQMDQLVRTLSGVREKHLYVKAETKQLQEYIYQLSDELGVSPKLAGQAFALQSDVEFRAYITELKESITQLTEYSSRWGVNHPKVKAQQKRLNFTRISINERSSQMYGVNSNEIFNSLNLDLNPKRSELFADLIDAYAKQKGQESMLEDLGRSALHLGDQLKIYSREIVELERLQREFNMAEAIFTSAAARLEASKSDVFASYPVLQMLTTPSYPMKQSSPKNIIAFIGAITGFIFITLGLIILSQRNKLIQIILKKEETTSSNS | failed
13 | MGHHHHHHSHMPVTEKDLAEDAPWKKIQQNTFTRWCNEHLKCVNKRIGNLQTDLSDGLRLIALLEVLSQKRMYRKYHQRPTFRQMQLENVSVALEFLDRESIKLVSIDSKAIVDGNLKLILGLVWTLILHYSISMPVWEDEGDDDAKKQTPKQRLLGWIQNKIPYLPITNFNQNWQDGKALGALVDSCAPGLCPDWESWDPQKPVDNAREAMQQADDWLGVPQVITPEEIIHPDVDEHSVMTYLSQFPKAKLKPGAPLKPKL | not failed
14 | MECRECTNRNKLDFEFTMAFQPIVNLETQTIFAHEALVRGLNNESAQAIFQHINDSNRYLFDQSCRTTAIRLAAELHIPCFLSINFLPNAVYEPERCIRTTLEAAETYGFPIEQIIFEITESEQITDLVHLRKIVEYYRARGFKTAIDDFGAGYAGLNLLSEIQTDLIKLDMALIRGIDQDKVRQAIVKGVLQVAGELSSLVIAEGIETQAELTTLQGLGINLFQGFYFAKPTFQSLAQIPSDRFVNVA | failed
15 | MRTYLVLFSILLVFLAGCISTESKVEDTTTAVTFVSVTDFTGETSTINSPVERVVSNYGLIPPIIYLFGEGDKIVAGRGVMGADEFIDAVDPEFKTRSKDIKSDNVEEIKSLNPDVIFAPSWGSQQGQYPQLKSLGIPVVFIDIETASNYYKTIEMMGEVFQKEAYAQELIDYYNQSTNDVLKRTASISENEKPRVLFLVYDQRKNSYWTPGGEFYQNNLITMAGGKTVSSDLPTGKAQINVEQAASWNPDVIITSAHTMEYPSTKVKEDVLTDEGWKEINAVKSGNVYAMPFDGESWDTLGSKYVLGLYWTAKTLHPDMYTDVDILNLTSSEYERFFNVSIDEVTLVGDNIE | failed
16 | MGLGRYLPYLLSAALLLLCGCERTDTHAQPAKENGEIKVAPYGSWQSPLSAADVFKQTDDIAELQSVGNAIYFAESSGRDQGKVGIKRLDGLGKVTQVVLPDFNVKSTVHEYGGAAFLGIGKSLFATKMQDQLFYRFAPNQPPLPLTPNGTRHADCVAYPKGSRIICVREDHRQGGEPKASLVTINLNFAGEGDTFVSGHDFISSPTISPDNTQLAWITWEHPYMPWDNSVLWLGELDRKGQLKNVRKVSTPEASSVAQPLFGPDGKLYVVSDISNWWNIYRVTPSYTLEPVLSKNAEFAVPDWRLGNHNYAFENATTLIASYVEGNRAALLRIHLDSELTESLAIDFAEITQVVKGEDGVYFVGAKATPEKGIYRVVGRGTELVYAPALANLNPNYVSRAINIAFATGKDQQAYGYFYGPVNPKYVPPHDTRPPLIVMLHGGPTSRASLAYRSEIQFWTSRGFAVLDLNFRGSSGFGRAYRQSLYGKWGESDVEDAVNAAKYLVAKGWVDANKLAIRGISAGGLTVMSSLAFYNVFQAGVSYEGISDVEQLAKSTHKFESGYLDQLIGPYPENTDRYRELSPLNHLDGLNEPLLIFQSLRNKIVPTSQSRQIYDALKAKGVPTAYIDYGDDSDEGRTPEHKAAGLETELAFYGQVFKFTPAGKLPPLILDNISALTP | failed
